Results published in patent US20150203575A1 (Genentech, published 2015).
Blank lines part the entries; values can stand above or below the binder they belong to.

What was measured:
MAG expressed on cells [1] = target: T1, MAG expressed on cells (human, UniProt P20916 20-626); test: cDNA expression library screen with PILRα-AP supernatant on COS7 transfectants; positive clones further analysed by FACS
T1 construct: Clone of the Origene human cDNA library; also called Myelin associated glycoprotein; SIGLEC4A
T1 sequence: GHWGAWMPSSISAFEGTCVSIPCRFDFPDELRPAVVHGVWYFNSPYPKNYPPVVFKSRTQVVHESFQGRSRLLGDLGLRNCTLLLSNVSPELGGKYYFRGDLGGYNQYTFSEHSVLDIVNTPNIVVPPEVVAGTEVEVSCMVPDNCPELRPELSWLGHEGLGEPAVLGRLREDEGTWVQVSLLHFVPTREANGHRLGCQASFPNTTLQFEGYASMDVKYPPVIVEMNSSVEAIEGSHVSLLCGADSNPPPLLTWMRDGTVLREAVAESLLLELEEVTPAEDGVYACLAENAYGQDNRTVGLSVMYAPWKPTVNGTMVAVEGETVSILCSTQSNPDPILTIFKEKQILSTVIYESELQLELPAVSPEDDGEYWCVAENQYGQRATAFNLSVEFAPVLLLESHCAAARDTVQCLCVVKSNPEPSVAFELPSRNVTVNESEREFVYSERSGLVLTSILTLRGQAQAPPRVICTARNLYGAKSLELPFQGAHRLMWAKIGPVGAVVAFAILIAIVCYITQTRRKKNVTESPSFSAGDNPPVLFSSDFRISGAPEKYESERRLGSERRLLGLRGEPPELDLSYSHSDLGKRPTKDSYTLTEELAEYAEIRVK
Procedure: (§1) COS7 cells were plated in a 24-well format and transfected with 10 ul of Origene library DNA (Origene, human DNA library containing 20 k genes) per well with Fugene 6 Reagent. Two days later, cells were incubated with human or mouse PILRα-Ap supernatants for 45 min at room temperature (RT). Then cells were fixed with 4% PFA for 15 min at RT. After removing fixation buffer, cells were blocked with 100 mM Glycine in HBS (20 mM Hepes, PH7.2, 150 mM NaCl) for 15 min at RT. Cells were then rinsed and incubated in HBS for 90 min at 65° C. HBS was removed and Western Blue Substrate (Promega) was added and color was developed for 30 min to 1 hr.

[2] = target: T2, IL15-RA expressed on cells (human, UniProt Q13261 31-267); test: as above
T2 construct: Clone of the Origene human cDNA library; also called Interleukin 15 receptor alpha
Procedure: as §1

BR3 expressed on cells [3] = target: T3, BR3 expressed on cells (human, UniProt Q96RJ3 1-184); test: as above
T3 construct: Clone of the Origene human cDNA library
T3 sequence: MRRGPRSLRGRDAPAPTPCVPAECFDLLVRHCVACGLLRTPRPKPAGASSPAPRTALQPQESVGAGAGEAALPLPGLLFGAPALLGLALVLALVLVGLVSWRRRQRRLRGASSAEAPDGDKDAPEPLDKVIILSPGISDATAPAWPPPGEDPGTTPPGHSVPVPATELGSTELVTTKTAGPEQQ
Procedure: as §1

ETBR expressed on cells = target: T4, ETBR expressed on cells (human, UniProt P24530 27-442); test: as above
T4 construct: Clone of the Origene human cDNA library; also called Endothelin receptor type B
T4 sequence: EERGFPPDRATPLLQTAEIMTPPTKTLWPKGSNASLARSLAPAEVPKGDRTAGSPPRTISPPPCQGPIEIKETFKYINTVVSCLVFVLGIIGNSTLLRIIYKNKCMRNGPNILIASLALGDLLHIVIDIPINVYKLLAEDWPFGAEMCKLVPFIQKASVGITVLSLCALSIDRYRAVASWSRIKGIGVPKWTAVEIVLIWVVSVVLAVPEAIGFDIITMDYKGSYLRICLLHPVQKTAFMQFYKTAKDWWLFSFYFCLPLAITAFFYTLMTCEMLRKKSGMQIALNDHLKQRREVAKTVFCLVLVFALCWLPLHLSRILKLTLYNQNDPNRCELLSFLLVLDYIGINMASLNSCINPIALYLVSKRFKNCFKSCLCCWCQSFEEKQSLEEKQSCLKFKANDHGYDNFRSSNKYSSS
Procedure: as §1

[4] = target: T5, LRRTM4 expressed on cells (human, UniProt Q86VH4 31-590); test: as above
T5 construct: Clone of the Origene human cDNA library; also called Leucine rich repeat transmembrane neuronal 4
Procedure: as §1

WDR31 expressed on cells = target: T6, WDR31 expressed on cells (human, UniProt Q8NA23 1-367); test: as above
T6 construct: Clone of the Origene human cDNA library; also called WD repeat domain 31
Procedure: as §1

BR3 expressed on cells [5] = target: T3, BR3 expressed on cells; test: flow cytometry, transfected 293T cells, 50 µg/ml
MAG expressed on cells [6] = target: T1, MAG expressed on cells; test: flow cytometry, transfected 293T cells, 50 µg/ml
[7] = target: T7, CLEC4G expressed on cells (human, UniProt Q6UXB4 1-293); test: flow cytometry, transfected 293T cells
T7 construct: Clone of the Origene human cDNA library; also called C type lectin superfamily 4 member G
T7 sequence: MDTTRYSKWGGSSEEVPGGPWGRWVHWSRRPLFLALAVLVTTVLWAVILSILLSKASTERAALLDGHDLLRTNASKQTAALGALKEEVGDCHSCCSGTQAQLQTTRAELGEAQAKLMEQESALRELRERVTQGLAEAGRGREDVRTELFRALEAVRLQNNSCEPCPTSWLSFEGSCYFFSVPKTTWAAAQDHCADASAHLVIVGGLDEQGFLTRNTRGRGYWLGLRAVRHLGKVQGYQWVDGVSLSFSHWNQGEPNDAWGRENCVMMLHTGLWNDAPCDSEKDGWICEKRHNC

T2 sequence (Q13261 31-267 limits assumed): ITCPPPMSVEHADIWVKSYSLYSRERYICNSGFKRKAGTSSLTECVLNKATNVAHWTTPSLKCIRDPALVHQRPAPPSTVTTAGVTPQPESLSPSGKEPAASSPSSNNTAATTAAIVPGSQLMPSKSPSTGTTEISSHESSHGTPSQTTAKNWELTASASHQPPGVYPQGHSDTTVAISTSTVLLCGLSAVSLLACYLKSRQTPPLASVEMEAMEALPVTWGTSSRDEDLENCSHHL
T5 sequence (Q86VH4 31-590 limits assumed): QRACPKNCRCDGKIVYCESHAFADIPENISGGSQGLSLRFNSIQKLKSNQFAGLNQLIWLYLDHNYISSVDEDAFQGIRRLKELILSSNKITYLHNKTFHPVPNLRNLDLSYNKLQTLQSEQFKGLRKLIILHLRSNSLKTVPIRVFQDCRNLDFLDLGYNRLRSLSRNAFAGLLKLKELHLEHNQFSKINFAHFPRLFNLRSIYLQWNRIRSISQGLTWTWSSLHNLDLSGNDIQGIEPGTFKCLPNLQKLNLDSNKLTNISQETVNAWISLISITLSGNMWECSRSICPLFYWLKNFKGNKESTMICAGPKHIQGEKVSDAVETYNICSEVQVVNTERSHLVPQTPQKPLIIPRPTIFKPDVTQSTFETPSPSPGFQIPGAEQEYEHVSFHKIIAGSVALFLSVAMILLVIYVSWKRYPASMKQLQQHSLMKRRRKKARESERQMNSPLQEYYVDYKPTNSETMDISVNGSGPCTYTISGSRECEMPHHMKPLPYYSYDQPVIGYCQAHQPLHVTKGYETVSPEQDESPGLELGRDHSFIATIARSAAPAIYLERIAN
T6 sequence (Q8NA23 other isoform, or with tags, fused parts or gaps): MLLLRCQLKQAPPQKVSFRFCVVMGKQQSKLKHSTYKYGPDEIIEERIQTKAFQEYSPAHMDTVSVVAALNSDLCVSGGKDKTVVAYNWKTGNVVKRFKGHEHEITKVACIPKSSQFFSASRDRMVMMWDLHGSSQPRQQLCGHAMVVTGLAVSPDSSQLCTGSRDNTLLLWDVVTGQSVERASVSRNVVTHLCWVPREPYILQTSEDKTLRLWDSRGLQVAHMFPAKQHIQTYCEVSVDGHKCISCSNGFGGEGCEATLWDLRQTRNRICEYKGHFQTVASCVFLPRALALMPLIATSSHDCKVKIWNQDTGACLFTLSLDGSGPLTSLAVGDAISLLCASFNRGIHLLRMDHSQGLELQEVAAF

binding result (MAG expressed on cells [1]): binds
binding result [2]: binds
binding result (BR3 expressed on cells [3]): binds
binding result (ETBR expressed on cells): binds
binding result [4]: binds
binding result (WDR31 expressed on cells): binds
B1: hPILRα-AP (other)
chain: QPSGSTGSGPSYLYGVTQPKHLSASMGGSVEIPFSFYYPWELATAPDVRISWRRGHFHRQSFYSTRPPSIHKDYVNRLFLNWTEGQKSGFLRISNLQKQDQSVYFCRVELDTRSSGRQQWQSIEGTKLSITQAVTTTTQRPSSMTTTWRLSSTTTTTGLRVTQGKRRSDSWHISLET
notes: Used as culture supernatant; also called human PILRα-AP; Alkaline phosphatase (AP)-tagged PILRα construct; not shown: C-terminal alkaline phosphatase (AP) tag

B2: mPILRα-Fc (Fc fusion)
chain: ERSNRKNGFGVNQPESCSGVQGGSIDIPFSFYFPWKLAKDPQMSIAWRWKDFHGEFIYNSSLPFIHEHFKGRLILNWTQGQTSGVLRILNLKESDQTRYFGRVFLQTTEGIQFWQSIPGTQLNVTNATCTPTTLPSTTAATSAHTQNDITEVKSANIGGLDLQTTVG
notes: also called mouse PILRα-Fc; WT mPILRα-Fc; not shown: Fc of mouse IgG2a (PILRα-mIgG2a, called PILRα-Fc)
% cells in lower right quadrant (BR3 expressed on cells [5]): 53.3%
% cells in lower right quadrant (MAG expressed on cells [6]): 0.55%

B3: mPILRαR133A-Fc (Fc fusion)
chain: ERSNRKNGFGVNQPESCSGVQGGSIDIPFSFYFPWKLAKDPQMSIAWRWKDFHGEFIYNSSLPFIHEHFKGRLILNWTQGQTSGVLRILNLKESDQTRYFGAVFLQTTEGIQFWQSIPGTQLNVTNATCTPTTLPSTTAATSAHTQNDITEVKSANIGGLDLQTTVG
notes: Arg mutant of mPILRα-Fc; also called mPILRα133A-Fc; variant mPILRα (R133A); not shown: Fc of mouse IgG2a (PILRα-mIgG2a, called PILRα-Fc)
binding result [7]: no binding (tested: 50 µg/ml)
